Consider 5 molecules from US11510990B2, “Conjugates of fusion proteins of GLP-1 and FGF21” (BEIJING QL BIOPHARMACEUTICAL CO., LTD., priority 2020, dated 2022).

Positions count from the first letter of the chain named.

To fix the notation:
B1: Compound 4: GLP-1/FGF21 fusion polypeptide SEQ ID NO: 4 conjugated with Moiety A at 51K and 231K (conjugate)
chain: HGEGTFTSDVSSYLEEQAAREFIAWLVRGGGGGGGSGGGGSGGGGSGGGGKHPIPDSSPLLQFGGQVRQRYLYTDDAQQTEAHLEIREDGTVGGAADQSPESLLQLRALRPGVIQILGVRTSRFLCQRPDGALYGSLHFDPEACSFRELLLEDGYNVYQSEAHGLPLHLPGQRSPHRDPAPRGPARFLPLPGLPPALPEPPGILAPQPPDVGSSDPLSLVGGSQGRSPSYKS
modifications: Moiety A conjugated at K51 and K231
B2: Compound 10: GLP-1/FGF21 fusion polypeptide SEQ ID NO: 10 conjugated with Moiety A at 222K (conjugate)
chain: B1 chain with K51S, G222K, K231E
modifications: Moiety A conjugated at K222
B3: Compound 9: GLP-1/FGF21 fusion polypeptide SEQ ID NO: 9 conjugated with Moiety A at 231K (conjugate)
chain: B1 chain with K51S
modifications: Moiety A conjugated at K231
B4: Compound 19: GLP-1/FGF21 fusion polypeptide SEQ ID NO: 19 conjugated with Moiety A at 51K and 222K (conjugate)
chain: B1 chain with G222K, K231E
modifications: Moiety A conjugated at K51 and K222
B5: Compound 63: GLP-1/FGF21 fusion polypeptide SEQ ID NO: 160 conjugated with Moiety B at 51C and 222C (conjugate)
chain: B1 chain with R20K, R28K, K51C, R107K, R110K, R120K, R173K, G222C, K231E
modifications: Moiety B conjugated at C51 and C222

A short description of the first data set: Body weight reduction in C57BL/6 mice, daily subcutaneous dosing. To be noted: 30 nmol/kg, 10-day dosing period (FIGS. 1A-1B). The format is in vivo. How it is done:
FIGS. 1A-1F show in vivo activities of fusion protein conjugates. […] Body weight was measured daily. […] Compared to Vehicle control: ***, p<0.001. All data are expressed as mean values and standard error (SEM).
10 week old male C57BL/6 mice were injected everyday subcutaneously with 30 nmol/kg exemplary fusion protein conjugates for 10 or 14 days (n=5). Body weight was daily monitored for each individual animal. Day 1 and Day 10 (or Day 14) are first day and last day of molecule dosage. % BW loss=100*(BW on Day n-BW on Day 1)/(BW on Day 1). Data are indicated as mean values and standard error (SEM) or pooled values. Statistical analysis was performed by One-way ANOVA. Body weight reduction on Day 11 in Table 5 is calculated by −1*(% BW loss−% BW loss of vehicle group).
With B1, the “BW reduction compared to Semaglutide” value is “much more enhanced and persistent BW reduction”.

For B2, the “BW reduction compared to Semaglutide” value is “much more enhanced and persistent BW reduction”.

The data set is the same for the next values; noted with them: male C57BL/6 mice, 30 nmol/kg subcutaneously everyday, Day 11.
As for B1, the “Body weight reduction at 30 nmol/kg (% reduction compared to vehicle)(Day11)” value was found to be 27.0%.

Take B2: the “Body weight reduction at 30 nmol/kg (% reduction compared to vehicle)(Day11)” value was determined as 20.0%.

Consider B3, for which the “Body weight reduction at 30 nmol/kg (% reduction compared to vehicle)(Day11)” value turned out to be 27.2%.

Take B4: the “Body weight reduction at 30 nmol/kg (% reduction compared to vehicle)(Day11)” value is 27.0%.

On to B5, for which the “Body weight reduction at 30 nmol/kg (% reduction compared to vehicle)(Day11)” value came to 24.5%.

The nature of a further data set: Pharmacokinetic measurement in C57BL/6 mice, single subcutaneous dose, plasma ELISA. The format is in vivo. To be noted: 30 nmol/kg subcutaneous. On the procedure:
Each fusion protein conjugate was injected subcutaneously into C57BL/6 mice (n=3/group) once and plasma samples were collected at designed timepoints and analyzed by ELISA method. Plasma concentrations are indicated as mean values and standard error (SEM).
6-8 week old male C57BL/6 mice were administrated in a single subcutaneous dose of 30 nmol/kg of the exemplary fusion protein conjugates (Compounds 4, 9, 10, 19, 63) or the non-acylated fusion protein (i.e., Compound 3, which has the amino acid sequence identical to Compound 2 but without any conjugation) (n=3/group). Plasma samples were collected pre-dose (−5 min), 0.5 hr, 1 hr, 2 hr, 4 hr, 6 hr, 8 hr, 12 hr and 24 hr hours after the injection. For Compound 3, plasma collection timepoints were −5 min, 0.25 h, 0.5 h, 1 h, 2 h, 4 h and 6 h. The concentrations of the fusion protein conjugates or the non-acylated fusion protein in the plasma were measured by an ELISA assay which has immunoreactivities towards both C-terminal FGF21 and intact N-terminal of GLP-1. Based on the graph showing plasma concentration of each protein versus time after subcutaneous injection, the pharmacokinetic parameters were calculated by WinNonlin.
Pharmacokinetic data were analyzed by WinNonlin software. Tmax, Cmax, T1/2, AUC and MRT were calculated for each molecule.
On the technique in general: An ELISA detects its analyte on a solid surface through an enzyme-linked reagent.
For the molecule B1, the “AUC compared to non-acylated fusion protein (Compound 3)” value is recorded as “larger AUC”; the “Half-lives of double acylated compared to monoacylated Compounds 9 and 10” value is reported as “significantly prolonged half-lives”; the “PK properties compared to Semaglutide” value is recorded as “better PK properties”.

Turning to B2, the “AUC compared to non-acylated fusion protein (Compound 3)” value was “larger AUC”.

With B3, the “AUC compared to non-acylated fusion protein (Compound 3)” value is “larger AUC”.

As to B4, the “AUC compared to non-acylated fusion protein (Compound 3)” value was “larger AUC”; the “Half-lives of double acylated compared to monoacylated Compounds 9 and 10” value is “significantly prolonged half-lives”; the “PK properties compared to Semaglutide” value is “better PK properties”.

Consider B5, for which the “AUC compared to non-acylated fusion protein (Compound 3)” value is listed as “larger AUC”.

The data set is the same for the next values; noted with them: single subcutaneous dose 30 nmol/kg, plasma.
What is called Cmax is the highest concentration seen after dosing. By Tmax is commonly meant the time at which the peak concentration occurs. For the molecule B1, the AUClast came out at 1019.6 nM·h, the Cmax is 0.0583 µM, the “Terminal t1/2” value amounted to 19.7 h and the Tmax worked out at 8 h.

On to B2, for which the AUClast was 465.1 nM·h, the Cmax is 0.0502 µM, the “Terminal t1/2” value worked out at 1.9 h and the Tmax amounted to 4 h.

For B3, the AUClast came out at 791.2 nM·h, the Cmax was found to be 0.0656 µM, the “Terminal t1/2” value was determined as 3.5 h and the Tmax came to 6 h.

As to B4, the AUClast worked out at 1018 nM·h, the Cmax was found to be 0.0599 µM, the “Terminal t1/2” value stood at 10.8 h and the Tmax is 4 h.

As to B5, the AUClast stood at 1294.8 nM·h, the Cmax was determined as 0.0888 µM, the “Terminal t1/2” value turned out to be 16.7 h and the Tmax is 6.7 h.

A further data set is described as follows: Body weight in DIO mice: fusion protein conjugate against GLP1 alone and FGF21 alone. The format is in vivo, DIO male C57BL/6 mice. The following applies: both 10 nmol/kg and 30 nmol/kg, subcutaneously everyday for 21 days. On the procedure: FIGS. 3A-3B show in vivo efficacy in DIO mice. To evaluate the body weight effect of the fusion proteins, 17 week old DIO mice (C57BL/6 mice on high fat diet for 13 weeks) were dosed everyday subcutaneously with different concentrations of compounds for 21 days. […] Data are expressed as mean values and standard error (SEM). n=5 for each treatment group.
17 week old DIO male C57BL/6 mice (˜45 g) were injected everyday subcutaneously with designated proteins (i.e., Compounds 63, 69 and 70) for 21 days. Body weight was measured daily and five animals were used for each treatment group. Day 1 and Day 21 are first day and last day of molecule dosage. % BW loss=100*(BW on Day n-BW on Day 1)/(BW on Day 1). Data are indicated as mean values and standard error (SEM).
With B5, the “Body weight control compared to GLP1 alone (Compound 70) and FGF21 alone (Compound 69)” value is on record as “better body weight control”.

A short description of the next data set: Efficacy study in DIO mice: body weight, fasting glucose, insulin, triglycerides. The data set is classed as in vivo, DIO male C57BL/6 mice. To be noted: 30 nmol/kg subcutaneously everyday for 21 days. On the procedure: FIGS. 4A-4F show in vivo efficacy in DIO mice. To evaluate effects of the compounds on the body weight, blood glucose, plasma insulin and plasma triglyceride in vivo, 17-week old DIO mice (C57BL/6 mice on high fat diet for 13 weeks) were dosed everyday subcutaneously with different concentrations of compounds for 21 days. […] Data are expressed as mean values and standard error (SEM). n=5 for each treatment group.
17 week old DIO male C57BL/6 mice (˜45 g) were injected everyday subcutaneously with designated proteins (i.e., Compound 63) for 21 days. Body weight was measured daily and five animals were used for each treatment group. Fasting glucose was also monitored on designated days. Body weight and glucose were monitored for each individual animal. Day 1 and Day 21 are first day and last day of molecule dosage. % BW loss=100*(BW on Day n-BW on Day 1)/(BW on Day 1). Terminal blood was collected and EDTA-2k plasma was prepared and frozen in −80° C. for biomarker measurement. Livers were also collected and frozen in liquid nitrogen and stored in −80° C.
Data are indicated as mean values and standard error (SEM). Statistical analysis was performed by One-way ANOVA.
On to B5, for which the “Body weight, glycemic control and lipid profile compared to 30 nmol/kg Semaglutide” value was “better body weight and glycemic control and lipid profile”.

The same data set, now with this note: comparing 10 nmol/kg and 30 nmol/kg.
Regarding B5, the “Dose dependence of efficacy” value is given as “Dose dependent efficacy”.
